The target in series [1] is T1, recombinant 6xHis-tagged calmodulin (UniProt P0DP23 1-149). As to the kind of experiment: ITC. Background: ITC needs no label: the signal is the heat of the interaction.
The next series has as its target Dansyl-labeled CaM (UniProt P0DP23 1-149, Dansyl label (site not stated)). As to the kind of experiment: other fluorescence titration.
Series [2] concerns the target T1, recombinant 6xHis-tagged calmodulin. As to the kind of experiment: fluorescence polarisation. (In general: Fluorescence polarisation rises when a labelled molecule tumbles more slowly, as on binding a larger partner.)
In series [3] the target is N-terminal half domain of CaM (residues 1-75) fused to cyan fluorescent protein (UniProt P0DP23 1-75). Briefly: ITC.
In series [4] the target is C-terminal half domain of CaM (residues 76-149) fused to blue fluorescent protein (UniProt P0DP23 76-149). Briefly: ITC.
In series [5] the target is T1, recombinant 6xHis-tagged calmodulin. As to the kind of experiment: ITC. This is another data set of the same source.
Series [6] has the same target. As to the kind of experiment: ITC. The source holds these as a separate data set.
For series [7] the target is unchanged. As to the kind of experiment: ITC. This is another data set of the same source.
For series [8] the target is unchanged. As to the kind of experiment: other fluorescence titration.
Series [9] concerns the molecule itself. Briefly: SEC. Background: Size exclusion chromatography separates by hydrodynamic size, large species first.
Series [10] concerns the molecule itself. As to the kind of experiment: SEC. This is another data set of the same source.
Series [11] addresses T1, recombinant 6xHis-tagged calmodulin. Briefly: other fluorescence titration. This is another data set of the same source.
The target is the same in series [12]. As to the kind of experiment: ITC. The source holds these as a separate data set.

The source of these data is publication PMC8777244 (Biochemistry and Biophysics Reports, 2022).

Where two headings read alike, the source gives them in different places. Where no end group is shown, it is not given here. The star is where a group is joined. Dansyl = CN(C)c1cccc2c(S(=O)(=O)*)cccc12; MBP = maltose binding protein fusion

B1: MBP-fused human Nox5β dehydrogenase domain residues 528-719 (domain or fragment)
chain: PTRRIFASEHAVLIGAGIGITPFASILQSIMYRHQKRKHTCPSCQHSWIEGVQDNMKLHKVDFIWINRDQRSFEWFVSLLTKLEMDQAEEAQYGRFLELHMYMTSALGKNDMKAIGLQMALDLLANKEKKDSITGLQTRTQPGRPDWSKVFQKVAAEKKGKVQVFFCGSPALAKVLKGHCEKFGFRFFQENF
The term stoichiometry N denotes a count of units in the complex or per binding partner. For the molecule B1, the Ka in [1] is 2.71e+06 M⁻¹. Further, in the series with Dansyl-labeled CaM, the Ka is 1.39e+06 M⁻¹ and the “stoichiometry N” value was 0.92 [Peptide]/[Protein].

B2: MBP-fused human Nox5β dehydrogenase domain residues 665-719 (domain or fragment)
chain: {MBP}-TRTQPGRPDWSKVFQKVAAEKKGKVQVFFCGSPALAKVLKGHCEKFGFRFFQENF
modifications: cysteine pairing not given here
As to B2, in [1], the Ka turned out to be 1.39e+06 M⁻¹. Besides, in the series with Dansyl-labeled CaM, the Ka stood at 4.9e+06 M⁻¹ and the “stoichiometry N” value was 0.92 [Peptide]/[Protein].

For RPDWSKVFQKVAAEKKGKV [human Nox5β CaM-binding domain (CMBD) peptide, residues 671-689], the Ka in series [2] was determined as 8.64e+06 M⁻¹; in series [3], 2.42e+06 M⁻¹; in series [4], 950000 M⁻¹; in series [5] it was 878000 M⁻¹; in series [6], 1.02e+06 M⁻¹; in series [8], 1.71e+07 M⁻¹. The entries for the “dH (per mole protein)” value in series [3], in series [4] and in series [5] were -3.94 kcal/mol, -4.02 kcal/mol and -6.94 kcal/mol, respectively. Besides, the “stoichiometry N” value is 0.89 [peptide]/Protein] in [3], 1.04 [peptide]/Protein] in [4], 1.82 [peptide]/Protein] in series [5] and 1.83 in series [7]. Besides, the “dH (per mole CMBD)” value in [7] was -3.81 kcal/mol.

B3: MBP-fused human Nox5β dehydrogenase domain residues 584-719 (domain or fragment, UniProt Q96PH1-4 584-719, looked up)
chain: KLHKVDFIWINRDQRSFEWFVSLLTKLEMDQAEEAQYGRFLELHMYMTSALGKNDMKAIGLQMALDLLANKEKKDSITGLQTRTQPGRPDWSKVFQKVAAEKKGKVQVFFCGSPALAKVLKGHCEKFGFRFFQENF
Regarding B3, the “stoichiometry N” value in “SEC [9]” is around 3; in the series “SEC [10]”, around 4; with Dansyl-labeled CaM, 0.89 [Peptide]/[Protein]. Besides, the figures for the Ka (in series [1]; with Dansyl-labeled CaM) were 933000 M⁻¹ and 1.82e+06 M⁻¹, respectively.

Turning to Dansyl-RPDWSKVFQKVAAEKKGKV [N-terminal Dansyl-labeled human Nox5β CMBD peptide], the Ka in [11] stood at 4.95e+06 M⁻¹.

B4: MBP-fused human Nox5β dehydrogenase domain residues 605-719 (domain or fragment)
chain: SLLTKLEMDQAEEAQYGRFLELHMYMTSALGKNDMKAIGLQMALDLLANKEKKDSITGLQTRTQPGRPDWSKVFQKVAAEKKGKVQVFFCGSPALAKVLKGHCEKFGFRFFQENF
Regarding B4, the Ka is around 1e+06 M⁻¹ in series [12], 894000 M⁻¹ in [1] and 2.52e+06 M⁻¹ with Dansyl-labeled CaM. Moreover, the “stoichiometry N” value with Dansyl-labeled CaM is 1.02 [Peptide]/[Protein].
